Test [1] concerns the target T1, LZTR1-FLAG (human, UniProt Q8N653 1-840).
T1 construct: Expressed in HEK 293T, HeLa or U87 cells; used as cell lysate; also called LZTR1 wild type-FLAG; LZTR1 WT; not shown: FLAG tag at the C-terminus
T1 sequence (looked up): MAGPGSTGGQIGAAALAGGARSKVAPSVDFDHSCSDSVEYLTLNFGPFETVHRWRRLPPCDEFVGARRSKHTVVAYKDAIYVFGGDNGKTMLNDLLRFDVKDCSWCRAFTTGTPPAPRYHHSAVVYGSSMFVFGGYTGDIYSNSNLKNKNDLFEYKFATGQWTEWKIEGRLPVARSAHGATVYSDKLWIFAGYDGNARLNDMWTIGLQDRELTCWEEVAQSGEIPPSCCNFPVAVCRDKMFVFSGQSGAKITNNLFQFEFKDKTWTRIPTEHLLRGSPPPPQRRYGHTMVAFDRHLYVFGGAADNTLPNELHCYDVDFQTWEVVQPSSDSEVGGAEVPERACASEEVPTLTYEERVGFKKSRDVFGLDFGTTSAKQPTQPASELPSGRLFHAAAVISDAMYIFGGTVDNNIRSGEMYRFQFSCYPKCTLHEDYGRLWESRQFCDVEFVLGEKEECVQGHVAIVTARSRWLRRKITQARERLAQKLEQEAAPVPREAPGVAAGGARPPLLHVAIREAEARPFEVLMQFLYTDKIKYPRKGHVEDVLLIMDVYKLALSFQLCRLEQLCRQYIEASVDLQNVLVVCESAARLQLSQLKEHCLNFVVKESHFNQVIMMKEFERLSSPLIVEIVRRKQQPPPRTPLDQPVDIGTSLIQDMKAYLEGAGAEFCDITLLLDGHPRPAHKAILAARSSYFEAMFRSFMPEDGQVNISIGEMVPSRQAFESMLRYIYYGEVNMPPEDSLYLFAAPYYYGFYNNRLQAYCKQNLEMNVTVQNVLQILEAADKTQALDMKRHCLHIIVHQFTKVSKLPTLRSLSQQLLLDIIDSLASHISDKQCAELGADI
The test can be described thus: IP/MS, LZTR1 wild type-FLAG, U87. The essentials:
(§1)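 Gel slices were reduced with 5 mM DTT, alkylated with 11 mM IAA and digested overnight at 37° C. with trypsin. Peptides were analysed on an Orbitrap Fusion Tribrid by LC-MS/MS.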

The target of test [2] is T2, LZTR1 R810W-FLAG (human, UniProt Q8N653 1-840).
T2 construct: Stably expressed in U87 cells by lentivirus; also called LZTR1-FLAG-R810W; LZTR1 RW; not shown: FLAG tag
T2 sequence (looked up): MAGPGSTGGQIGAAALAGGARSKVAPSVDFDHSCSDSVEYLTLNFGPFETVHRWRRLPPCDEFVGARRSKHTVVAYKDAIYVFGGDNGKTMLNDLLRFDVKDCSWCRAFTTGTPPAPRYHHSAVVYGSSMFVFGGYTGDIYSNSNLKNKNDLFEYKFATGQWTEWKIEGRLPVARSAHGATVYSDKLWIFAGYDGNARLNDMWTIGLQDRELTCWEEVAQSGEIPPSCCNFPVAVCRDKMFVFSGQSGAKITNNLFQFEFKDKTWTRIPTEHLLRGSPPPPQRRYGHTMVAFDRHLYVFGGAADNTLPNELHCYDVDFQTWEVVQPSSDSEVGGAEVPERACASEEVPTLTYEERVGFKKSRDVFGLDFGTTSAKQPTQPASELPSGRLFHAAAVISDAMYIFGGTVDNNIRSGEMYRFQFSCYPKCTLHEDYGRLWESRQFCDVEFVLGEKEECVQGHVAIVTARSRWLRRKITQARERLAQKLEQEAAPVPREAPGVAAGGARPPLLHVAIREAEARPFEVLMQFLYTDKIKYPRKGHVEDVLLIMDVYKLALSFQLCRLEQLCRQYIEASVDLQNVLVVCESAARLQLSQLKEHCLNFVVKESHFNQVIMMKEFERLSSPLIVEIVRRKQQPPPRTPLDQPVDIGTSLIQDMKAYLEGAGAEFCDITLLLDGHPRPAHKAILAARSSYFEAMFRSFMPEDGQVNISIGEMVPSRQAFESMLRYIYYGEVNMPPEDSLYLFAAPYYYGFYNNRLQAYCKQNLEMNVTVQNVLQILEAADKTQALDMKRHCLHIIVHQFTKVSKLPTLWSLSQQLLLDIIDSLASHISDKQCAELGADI
Description: IP/MS, LZTR1 R810W-FLAG, U87. The essentials:
as §1

B1: YME1L1 (other, human, UniProt Q96TA2 1-773, looked up)
chain: MFSLSSTVQPQVTVPLSHLINAFHTPKNTSVSLSGVSVSQNQHRDVVPEHEAPSSECMFSDFLTKLNIVSIGKGKIFEGYRSMFMEPAKRMKKSLDTTDNWHIRPEPFSLSIPPSLNLRDLGLSELKIGQIDQLVENLLPGFCKGKNISSHWHTSHVSAQSFFENKYGNLDIFSTLRSSCLYRHHSRALQSICSDLQYWPVFIQSRGFKTLKSRTRRLQSTSERLAETQNIAPSFVKGFLLRDRGSDVESLDKLMKTKNIPEAHQDAFKTGFAEGFLKAQALTQKTNDSLRRTRLILFVLLLFGIYGLLKNPFLSVRFRTTTGLDSAVDPVQMKNVTFEHVKGVEEAKQELQEVVEFLKNPQKFTILGGKLPKGILLVGPPGTGKTLLARAVAGEADVPFYYASGSEFDEMFVGVGASRIRNLFREAKANAPCVIFIDELDSVGGKRIESPMHPYSRQTINQLLAEMDGFKPNEGVIIIGATNFPEALDNALIRPGRFDMQVTVPRPDVKGRTEILKWYLNKIKFDQSVDPEIIARGTVGFSGAELENLVNQAALKAAVDGKEMVTMKELEFSKDKILMGPERRSVEIDNKNKTITAYHESGHAIIAYYTKDAMPINKATIMPRGPTLGHVSLLPENDRWNETRAQLLAQMDVSMGGRVAEELIFGTDHITTGASSDFDNATKIAKRMVTKFGMSEKLGVMTYSDTGKLSPETQSAIEQEIRILLRDSYERAKHILKTHAKEHKNLAEALLTYETLDAKEIQIVLEGKKLEVR
As to B1, the binding result in test [1] and in test [2] was “binds” in each case.

B2: ZC3HC1 (other, human, UniProt Q86WB0 2-502, looked up)
chain: AAPCEGQAFAVGVEKNWGAVVRSPEGTPQKIRQLIDEGIAPEEGGVDAKDTSATSQSVNGSPQAEQPSLESTSKEAFFSRVETFSSLKWAGKPFELSPLVCAKYGWVTVECDMLKCSSCQAFLCASLQPAFDFDRYKQRCAELKKALCTAHEKFCFWPDSPSPDRFGMLPLDEPAILVSEFLDRFQSLCHLDLQLPSLRPEDLKTMCLTEDKISLLLHLLEDELDHRTDERKTTIKLGSDIQVHVTACILSVCGWACSSSLESMQLSLITCSQCMRKVGLWGFQQIESSMTDLDASFGLTSSPIPGLEGRPERLPLVPESPRRMMTRSQDATFSPGSEQAEKSPGPIVSRTRSWDSSSPVDRPEPEAASPTTRTRPVTRSMGTGDTPGLEVPSSPLRKAKRARLCSSSSSDTSSRSFFDPTSQHRDWCPWVNITLGKESRENGGTEPDASAPAEPGWKAVLTILLAHKQSSQPAETDSMSLSEKSRKVFRIFRQWESLCSC
On to B2, for which the binding result in test [1] and in test [2] was “binds” each time.

These data come from US20250262210A1 (TRUSTEES OF COLUMBIA UNIVERSITY IN THE CITY OF NEW YORK, published 2025).
